Assay: soluble on expression in E. coli; label from the status in PepcDB or PDB records

Sequence	soluble on expression in E. coli
MSLAKPFDAYISVTVKARGNGTVHLGPIHKRWSRLDMGQFLLGGSRFVDSQRQEFIYYFHPGDMKPPLNVYFSGYRTAEGFEGYYMMKRMNAPFLLIGDPRVEGGSFYIGSSEYEQGIINVIDETLEKLNFKSHELILSGLSMGSFGALYYGAQLNPQAIIVGKPLVNIGTIAEHMRLLRPEEFGTALDVLVSNEGDTSQASIQALNQKFWQTFQKKSLSQTVFAIAYMQHDDYDPHAFQELLPVLTAHQARVMNRSIPGRHNDDSEGHHHHHH	not soluble
IVGGYTCAANSIPYQVSLNSGSHFCGGSLINSQWVVSAAHCYKSRIQVRLGEHNIDVLEGNEQFINAAKIITHPNFNGNTLDNDIMLIKLSSPATLNSRVATVSLPRSCAAAGTECLISGWGNTKSSGSSYPSLLQCLKAPVLSDSSCKSSYPGQITGNMICVGFLEGGKDSCQGDSGGPVVCNGQLQGIVSWGYGCAQKNKPGVYTKVCNYVNWIQQTIAAN	soluble
MTSIAISSGSFDPITLGHLDIIKRGAKVFDEVYVVVLNNSSKKPFFSVEERLDLIREATKDIPNVKVDSHSGLLVEYAKMRNANAILRGLRAVSDFEYEMQITSMNRKLDENIETFFIMTNNQYSFLSSSIVKEVARYGGSVVDLVPPVVERALKEKFQTPLK	not soluble
MGSDKIHHHHHHKDLLGREVEIPSNVNRIVAVGPGALRLIAYLKATDMVVGVEDFEKLRPYGRPYILAYPELKKLPSVGPGGPGKLPDLESLITLQPDVVFITYVDRKTAKDIQEKTGIPVVVLSYGNLGTFEDEDLFRSIELAGKILGREERAHEVVDFIRKAQEDLVTRSEGVESPTVYVGGIGYKGAHGIDSTEAKYPPFVVLHARNVVDELGEGHKFIDPEKLLVWNPEYIFIDENGLSLVLDDYSKHREFYESLSAVKRGKVYGILPYNYYTTNIGTALADAYFIGKVLYPERFTDIDPEEKADEIYEFLLGKRVYGEMAEQFGGFGKIDLPSGRILRGTW	not soluble
TGKIDGILSIGVDVTERVKWRKQIEASGARLKSMIDQTPAPTLVLMGDNLVIEQVNTSMLKLLGHEENIVGIPLLTLMPELKGQYIWEQVEKVYREGIPFDQSEVRVSHKRTGMMEDYYYNIAYRPLKED	not soluble
MFKRIGLISIALSLNTISFTSEACSALVFNKNKPATVAVNLDWKYREGAFVIHPRNAMMVSSVDYHSMHPLIWKSQYGSVIFHGGNRFKAGPSADGMNEKGLTASILMLDSSIYPSNSELPALKTTEWVQYILDNFQTVQEVIDDSSNYQLVADTYRGITMNVHLMVSDAEGKSAVFEYLDGKLVIHTQDNLTTPVLTNTDYKLSLALLEEYQDHGGSKALPGGYDSKSRFVRAAHYLKKLPSFIAKEEHIAYAFNGLNVVTQAPGTSSPTQLSMVFDIPTKTIYFRSINEAALRVIPMDSIDFDYLYQPIALNVYQHLSGDVTDKFQPMIG	not soluble
MDNTYRDEKVNGCGPGDVNLMLELLEKGEKIGGKSADQSSLFVALCRSVGIPAREVFGIRVLPSSFSEGLSIKPGSKDITKAQHCRAEFWAGEWIPVDPADVTKLILKEKLPRNHPRVNFARRYFFGNWDPHWIAYNWGRDFVLEPPQRVKPLNLFGYPYAEVKGEPLNWLEPKSFVYRIKLVRA	not soluble
MDSKILTMFNQGKHEEAIQAAVKAIDAAPDDPKRYAMLATMLISIKALDQAGELLAKARQLFPEDLELQYTAGLFAYAQADFAAAVSWFAKVRTDQTLKNDATYMLALSYQQAGQPTKALAFALTAHDLAPKQLDTALLAADLLMANDVFDAAARVLKPLLATEQPQVLFTYGMALSAAGKDGSHYLNKAKALDPKGYDQKANIVADINRFLRLQEGQDGHALEHHHHHH	soluble
RIDNRNDEILRITGNPYHPLSHQQHIPFETPVKDAYLSLAGEAGLDGRSTACARGNGMLEIRNSPYRITQPLKRVGKRGEGKWIPISYEQLIEEVVEGGDLFGEGHVDGLRDIRDLTTPVDPENPEYGPKANQLLMTNAGNEGRDDIFKRFAFNSYGTRNFGHHGSYCGYAFRAGSGAFMNDLDKNAHLKPDFDNAEYIIFIGMSPAQAGNPFKRQARQLANARTEGSLE	not soluble
MEEHYYVSIDIGSSSVKTIVGEKFHNGINVIGTGQTYTSGIKNGLIDDFDIARQAIKDTIKKASIASGVDIKEVFLKLPIIGTEVYDESNEIDFYEDTEINGSHIEKVLEGIREKNDVQETEVINVFPIRFIVDKENEVSDPKELIARHSLKVEAGVIAIQKSILINMIKCVEACGVDVLDVYSDAYNYGSILTATEKELGACVIDIGEDVTQVAFYERGELVDADSIEMAGRDITDDIAQGLNTSYETAEKVKHQYGHAFYDSASDQDIFTVEQVDSDETVQYTQKDLSDFIEARVEEIFFEVFDVLQDLGLTKVNGGFIVTGGSANLLGVKELLSDMVSEKVRIHTPSQMGIRKPEFSSAISTISSSIAFDELLDYVTINYHDNEETEEDVIDVKDKDNESKLGGFDWFKRKTNKKDTHENEVESTDEEIYQSEDNHQEHKQNHEHVQDKDKDKEESKFKKLMKSLFE	not soluble
GSHMGQNDLVKTLRMNYLFDFYQSLLTNKQRNYLELFYLEDYSLSEIADTFNVSRQAVYDNIRRTGDLVEDYEKKLELYQKFEQRREIYDEMKQHLSNPEQIQRYIQQLEDLE	soluble
MDKQSLHETAKRLALELPFVELCWPFGPEFDVFKIGGKIFMLSSELRGVPFINLKSDPQKSLLNQQIYPSIKPGYHMNKKHWISVYSGEEISEALLRDLINDSWNLVVDGLAKRDQKRVRPG	not soluble
MGSSHHHHHHMRVDGREKTELRHIHIHTNYLKHPEGSVLIEVGDTKVICSATIEERVPPFMRGEGKGWVTAEYAMIPRATEQRTIRESSKGKVTGRTMEIQRLIGRALRAVVDLEALGERTVWIDCDVIQADGGTRTASITGAYVAMVLAFEKLLQAEKVSKIPVKDYLAATSVGIVEEQGVVLDLNYAEDSKADVDMNVIMTGKGQFVEVQGTGEEATFSRAQLNELLDAAEQGIFQLIDIQKEALGDIVSHIE	soluble
KDINLYKGSIPSGKQQGVDAILISNPNLINILEQAKQKNTAQGSESTTNKIIGYTTTANVNVDNQNIFSVSKLNNEQFQRKIIVNATEETLDQSQTLQSNESIVLPMPGKYKSTDKNKVMITQGPNLIGIHANEKENIETKKFVNW	not soluble
MSLFQMSYYYSGLGWDFIQHVDQTNGVLNVVSPDFFYIRKDGSLLLRSANPDVIKALHRRKLKVVPFLSNHWDQDLGRFALMNRVLLAKQISHAIEELDLDGVNIDIENLTEKDRNLFTDFIRLVRKSIPRHKEVSVAVAANPFGWTKGWHGSYDYEYLAKYADYLMVMAYDESRLAGPTASVGWVEKSIQYVLTQKISPQKLVLGLPFYGRCWMEGQSASQAIPLYLVVSKKAEGHHHHHH	not soluble
MIDINLIREKPDYVKERLATRDKELVSLVDKVLELDKRRREIIKRLEALRSERNKLSKEIGKLKREGKDTTEIQNRVKELKEEIDRLEEELRKVEEELKNTLLWIPNLPHPSVPVGEDEKDNVEVRRWGEPRKFDFEPKPHWEIGERLGILDFKRGAKLSGSRFTVIAGWGARLERALINFMLDLHTKKGYKEICPPHLVKPEILIGTGQLPKFEEDLYKCERDNLYLIPTAEVPLTNLYREEILKEENLPIYLTAYTPCYRREAGAYGKDIRGIIRQHQFDKVELVKIVHPDTSYDELEKLVKDAEEVLQLLGLPYRVVELCTGDLGFSAAKTYDIEVWFPSQNKYREISSCSNCEDFQARRMNTRFKDSKTGKNRFVHTLNGSGLAVGRTLAAILENYQQEDGSVVVPEVLRDYVGTDVIRPE	soluble
MKSEIIAVGTEILTGQIVNTNSQFLSEKFAELGIDVYFQTAVGDNEERLLSVLKIAKERSDLIVLCGGLGPTEDDLTKQTLAKFLKRELVFDKTAQERLDEFFASRPTSMRTPNNECQAQIIAGSQPLSNKTGLAVGGLLEADGVTYVVLPGPPSELKPMVNKELLPYLSKTSEKLYSRVLRFFGIGESHLVTLLHDLIAEQTDPTIAPYAKTGEVTIRLSTKAHRQKEADSKLDKLEKKIITIDNLADYFYGYGEENSLPQVVFDLLKEKGKTITAAESLTAGLFQARLADFAGASDIFKGGFITYSIEEKARMLGIPFEDLQLHGVVSAFTAEKMAERSRQLTQADLAISLTGVAGPDSLEGQPAGTVFIGLSSSKRTMAIKVLIGGRSRSDVRYIAVLHAFNLVRQTLLSHKNLV	soluble
MRLLLAAPHSGAGKTTVSLALLLALRARGLRVQPFKVGPDYIDPTHLEKAAARRPYNLDGFFLDETGLLALFRHGARGADFALIEGVMGLFDGKDPRGEVGSTAQVARLLKAPVALVVDAKGMAGSIAPLALGFRDFHPGVRVVGVFANRVGSERHAEILKEALKAVGLPLLGWLPQDPALELPERHLGLVLAGEVAPPLEALRRAFRVDLEGVLRLAASAPPLPEARPFLPPRRPPRARVAYAWDKAFSFYYPEALELLEALGAELVPFSPLEDEALPKAHALLLGGGYPELFAERLSANVALREAIRRFPGPIVAECGGYMYLSQGLWVGERFFPMVGLVPGEARMAERPVLGYREVEALRDSPVARKGQAFKGHEFHYARLPASPSPAWRRLGGEEVEGYTDGRVLASFVHLYLPARPEGVERLLGLASRGKAAGASLEHHHHHH	not soluble
MSLAKIPVLEIFGPTIQGEGRVIGRKTMFVRTAGCDYRCSWCDSAFTWDGSAKGDIKLMTAEEIYDELKRIGGDLFNHVTISGGNPALIKGIQELVDLFQDKGIFSALETQGSKFQPWMTQIDDLTISPKPPSSTMTPDLKKLDEVITQCVPSSLNLKVVVFDDKDYDFAKMIHHRYPDIPFYLQVGNPYLSDSVDNHTEKLLERYEQLVDLVMQSNDMNHVYVLPQLHTLLWSNKKGVEGHHHHHH	soluble
MLANFSQKAQETLVGELEELVSTTNLKGVITYCNDAFCRVAEYTHEELVGQNHNIVRHSDMPKAAFGDMWARLKEGKAWRGMVKNSTKSGGYYWVDAYVTPIYEKNQVVGYQSVRVKPKREWVDIAAKAYKGMLAAEKAGRTWSLKINETVRYAILLGALTAPAVAYALSVEGPLAWLASALPASVLALLFRQELIDTPQQLKKLQKQYDSVSRLIYSGNSAFSIADFHIKMLSARIRTVLGRMTDSALPLQNCAEELSQTTSEVSAALNQQNSDIRRVRDATQEVESSANSVSSSTNDAHMLIDDTLKSCMMAKETIDQTHTNLAQLSLQA	not soluble
MKTSEWIDISQPLNNNIATWPGDTPFSYEVSWSKEESGSVNVGKLTMSIHTGTHIDAPFHFDNDGKKVLDLDVQVYVGPARIIDVSNLESIGKKELESFHLEGVERLLLRTSSHGKAEEFPEVIPHLRADIASFLSEKGIRLIGVDVPSVDPLDDKELAAHHQLFKHGIHILENVVLDHVADGDYELIALPLALTDADGSPVRAVIRPILEHHHHHH	soluble
MSLNSQEMVLGNAWLVLADRVIEHGWVAIADGVIAEVGEGDAPNGAKDMHGDLVMPGLVELHTDHLEAHYTPRPKVQWNPVAAVVSYDGQLATCGITTVLDSLRVWREEGAEEVDGQAIVLAGAISTARDAQLLRADHFLHLRCEIPMPNVVAEAKELIDRPDIRLMSLMDHTPGQRQFRDEEKLRDYYRGKGAGMTDAELDVMFARRVYCKENYADANMRAIVELAHRYEIPLASHDDTTPENVADAIRDRVAVAEFPTTLEAARELHQAGIDILMGAPNVVRGGSHSGNIAAIDLAHEGLLDILSSDYIPSSLLIAALQLPMRAPGIDLAAAIRTVTKAPAEAVGLNDRGEISKGKRADLIRVHVAHDVPAVRSVWREGQRVAEGHHHHHH	not soluble

— the DeepSol protein solubility set
